According to PMC12207370, “Macrocyclic Peptide Probes for Immunomodulatory Protein CD59: Potent Modulators of Bacterial Toxin Activity and Antibody‐Dependent Cytotoxicity” (Angewandte Chemie (International Ed. in English), 2025):

Target: T1, biotinylated CD59 (Homo sapiens, UniProt P13987)
T1 construct: Recombinant soluble human CD59 with an additional C-terminal cysteine residue
T1 sequence (P13987 26-102 limits assumed): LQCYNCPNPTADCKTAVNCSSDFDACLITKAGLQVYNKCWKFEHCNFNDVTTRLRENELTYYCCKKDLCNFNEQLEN
Assay: mRNA-display cyclic peptide screen against CD59-biotin, NGS abundance after 6th selection round
Settings: for Percentage Seq I: counts normalised by total counts of sample Seq I; for Percentage Seq I / Percentage Seq II: percentage of the pool; for Percentage Seq I / Percentage Seq II / Percentage Average / Percentage of the pool, averaged across the two sequencing samples / Percentage of the pool, Seq I / Percentage of the pool, Seq II: sheet R6; for Percentage Seq II: counts normalised by total counts of sample Seq II; for Percentage Average: percentage of the pool averaged across the two sequencing samples; for Counts Seq I / Counts Seq II: raw NGS counts of peptide sequence; for Counts Seq I: sequencing sample Seq I; for Counts Seq I / Counts Seq II / Counts (raw counts for peptide sequence), Seq I / Counts (raw counts for peptide sequence), Seq II: sheet R6 (6th selection round); for Counts Seq II: sequencing sample Seq II; for Counts (raw counts for peptide sequence), Seq I: NGS sample Seq I; for Counts (raw counts for peptide sequence), Seq II: NGS sample Seq II; for Percentage of the pool, averaged across the two sequencing samples: average of Seq I and Seq II; for Percentage of the pool, Seq I: counts normalised by total counts of NGS sample Seq I; for Percentage of the pool, Seq II: counts normalised by total counts of NGS sample Seq II
From the text: To discover novel non‐protein CD59 ligands, we screened a library of 10^12 cyclic peptides against CD59 using mRNA‐display (Figure 2a).^[ [23], [24], [25], [26], [27], [28], [29] ^] Briefly, an mRNA library was designed in which the start codon was reprogrammed from Met to N‐chloroacetyl‐D‐Tyr (ClAc‐D‐Tyr), followed by 10–12 randomly encoded natural amino acids, a Cys residue, a (GlySer)3 linker, and a stop codon. […] The total library diversity was 1.51 × 10^13 molecules, comprising 5.02 × 10^12 molecules of each macrocycle size, covering a subset of the maximum theoretical diversity of this library design. Following in vitro translation, ClAc‐D‐Tyr spontaneously reacts with either the C‐terminal Cys or a Cys in the random region, yielding macrocyclic thioether peptides. Hits from the library were identified through iterative enrichment and amplification against biotinylated CD59, then immobilized on streptavidin beads. Fifteen hit sequences (CP‐01 to CP‐15), enriched with abundance >1% relative to the total pool of recovered binders after the 6th round of selection, were synthesized by solid phase peptide synthesis (SPPS), without the (Gly‐Ser)3 linker.
Figure 2 Discovery of macrocyclic peptide ligands with nanomolar CD59 affinity using mRNA display. a) The selection process. PCR = polymerase chain reaction, SPPS = solid phase peptide synthesis. b) Table showing details of the peptides with nanomolar affinity for CD59 as well as the binding affinity of the lead inhibitor of CD59, rILYd4. K D values are presented as the average of three technical replicates ± SEM. Structures of all peptides and SPR sensograms are presented in Figures S1 and S2. *indicates the presented sequences are the variable regions of these cyclic peptides; each is flanked by an N‐terminal Ac‐D‐Tyr cyclized to a C‐terminal Cys. R6 abundance (%) is defined as (the given number of NGS reads for a given sequence/the total number of reads of unique sequences observed in NGS)*100 following the 6th selection round. c) Representative sensogram of the interaction between CP‐06 with immobilized CD59 by SPR analysis. Inset showing the equilibrium binding curve of CP‐06 to CD‐59. Below in the box are the association and dissociation rate constants of CP‐06. Concentrations are plotted in descending order from 800‐3.1 nM in line with their position on the legend. […] (nM)'; the box with Kon/Koff has no label of its own / ILYd4: the label may be cut off at the left edge (possibly 'rILYd4') / CP-02, KD: 15.3 ± 0.2, small print, 3 or 8 uncertain / CP-03, KD: 23.4 ± 0.7, small print / CP-06, KD: 11.3 ± 0.0, small print, 3 or 8 uncertain / CP-13, KD: 10.8 ± 0.7, small print, 8 or 6 uncertain / ILYd4, KD: 48.3 ± 1.1, small print, 8 and 3 uncertain
The mRNA-display cyclic peptide screen was performed against CD59-biotin by T.E.M: DNA templates for transcription were generated by PCR in a similar manner to that previously described.^2 RNA oligonucleotides were transcribed from the DNA templates using T7 RNA polymerase and purified by phenol/chloroform extraction followed by ethanol precipitation. Oligonucleotide concentrations were determined spectroscopically by absorbance at 260 nm. In the first selection round a 1:1:1 molar ratio of NNK10/NNK11/NNK12 was used. The procedure for selection rounds 2-6 is described below; round 1 was conducted at twice the scale.
RNA encoding for the peptide library ligated to a puromycin-modified oligonucleotide was […] (final [RNA] = 2.5 µM) using a customised PURE express kit (lacking release factor 1 and methionine, supplemented with […] initiator tRNA acylated with N-chloroacetyl-d-tyrosine prepared as previously described)^3 in a final volume of 5.6 µL for 1 hour at 37 °C.
This mixture was incubated at 42 °C for 1 hour before being diluted to 500 µL with PBS (10 mM Na-PO4 pH 7.4, 2.7 mM KCl, 137 mM NaCl) and 0.5 µL taken for subsequent use in qPCR. […]

## CYGNSHASWG
  Percentage Seq I: 0.483%
  Percentage Seq II: 0.469%
  Percentage Average: 0.476%
  Counts Seq I: 2115
  Counts Seq II: 202

## CYGGRAFIYAWS
  Percentage Seq I: 0.042%
  Percentage Seq II: 0.044%
  Percentage Average: 0.043%
  Counts Seq I: 185
  Counts Seq II: 19

## SWQNECFRLRT
  Percentage Seq I: 0.013%
  Percentage Seq II: 0.026%
  Percentage Average: 0.019%
  Counts Seq I: 58
  Counts Seq II: 11

## YVTGNRDHTRG
  Counts (raw counts for peptide sequence), Seq I: 66
  Counts (raw counts for peptide sequence), Seq II: 8
  Percentage of the pool, averaged across the two sequencing samples: 0.017%
  Percentage of the pool, Seq I: 0.015%
  Percentage of the pool, Seq II: 0.019%

## HVFGSRSFTRG
  Percentage Seq I: 0.074%
  Percentage Seq II: 0.084%
  Percentage Average: 0.079%
  Counts Seq I: 323
  Counts Seq II: 36

## FARGDRNHQFY
  Counts (raw counts for peptide sequence), Seq I: 63
  Counts (raw counts for peptide sequence), Seq II: 5
  Percentage of the pool, averaged across the two sequencing samples: 0.013%
  Percentage of the pool, Seq I: 0.014%
  Percentage of the pool, Seq II: 0.012%

## HVIGNRSFTRG
  Percentage Seq I: 0.020%
  Percentage Seq II: 0.016%
  Percentage Average: 0.018%
  Counts Seq I: 87
  Counts Seq II: 7

## CYSLRLGPETV
  Counts (raw counts for peptide sequence), Seq I: 37
  Counts (raw counts for peptide sequence), Seq II: 6
  Percentage of the pool, averaged across the two sequencing samples: 0.011%
  Percentage of the pool, Seq I: 0.00846%
  Percentage of the pool, Seq II: 0.014%

## SAWGNRQVQYY
  Percentage Seq I: 0.110%
  Percentage Seq II: 0.116%
  Percentage Average: 0.113%
  Counts Seq I: 483
  Counts Seq II: 50

## CYTAGSASWSRG
  Percentage Seq I: 0.726%
  Percentage Seq II: 0.680%
  Percentage Average: 0.703%
  Counts Seq I: 3176
  Counts Seq II: 293

## FVRGDRYSVLG
  Percentage Seq I: 0.045%
  Percentage Seq II: 0.039%
  Percentage Average: 0.042%
  Counts Seq I: 198
  Counts Seq II: 17

## IATGSKLYAKG
  Percentage Seq I: 0.033%
  Percentage Seq II: 0.046%
  Percentage Average: 0.040%
  Counts Seq I: 145
  Counts Seq II: 20

## CFYTRIDAFST
  Percentage Seq I: 0.081%
  Percentage Seq II: 0.079%
  Percentage Average: 0.080%
  Counts Seq I: 354
  Counts Seq II: 34

## FVRGDLYSVRG
  Percentage Seq I: 0.018%
  Percentage Seq II: 0.032%
  Percentage Average: 0.025%
  Counts Seq I: 78
  Counts Seq II: 14

## ISRGDARYTWG
  Percentage Seq I: 0.019%
  Percentage Seq II: 0.023%
  Percentage Average: 0.021%
  Counts Seq I: 83
  Counts Seq II: 10

## IARGDRNHQFF
  Counts (raw counts for peptide sequence), Seq I: 42
  Counts (raw counts for peptide sequence), Seq II: 6
  Percentage of the pool, averaged across the two sequencing samples: 0.012%
  Percentage of the pool, Seq I: 0.010%
  Percentage of the pool, Seq II: 0.014%

## CYGGRTFIYACS
  Percentage Seq I: 0.019%
  Percentage Seq II: 0.021%
  Percentage Average: 0.020%
  Counts Seq I: 83
  Counts Seq II: 9

## LWGTHSYTYYRP
  Counts (raw counts for peptide sequence), Seq I: 60
  Counts (raw counts for peptide sequence), Seq II: 4
  Percentage of the pool, averaged across the two sequencing samples: 0.011%
  Percentage of the pool, Seq I: 0.014%
  Percentage of the pool, Seq II: 0.009%

## QWNRWYGIDEL
  Percentage Seq I: 0.075%
  Percentage Seq II: 0.070%
  Percentage Average: 0.072%
  Counts Seq I: 329
  Counts Seq II: 30

## HVFGNRSFTSG
  Percentage Seq I: 0.017%
  Percentage Seq II: 0.021%
  Percentage Average: 0.019%
  Counts Seq I: 73
  Counts Seq II: 9

## YAWGNRNNAYY
  Percentage Seq I: 0.060%
  Percentage Seq II: 0.049%
  Percentage Average: 0.054%
  Counts Seq I: 263
  Counts Seq II: 21

## TYGSRFCPQYCAAAAAAARTGGG
  Percentage Seq I: 0.030%
  Percentage Seq II: 0.037%
  Percentage Average: 0.034%
  Counts Seq I: 133
  Counts Seq II: 16

## LQPPDRSCLPKI
  Percentage Seq I: 0.029%
  Percentage Seq II: 0.030%
  Percentage Average: 0.029%
  Counts Seq I: 125
  Counts Seq II: 13

## ISYGDRSYTYY
  Percentage Seq I: 0.106%
  Percentage Seq II: 0.121%
  Percentage Average: 0.113%
  Counts Seq I: 463
  Counts Seq II: 52

## CRGNRFYQLSFH
  Percentage Seq I: 0.154%
  Percentage Seq II: 0.186%
  Percentage Average: 0.170%
  Counts Seq I: 674
  Counts Seq II: 80

## FVRGDLYSVFG
  Percentage Seq I: 0.023%
  Percentage Seq II: 0.026%
  Percentage Average: 0.024%
  Counts Seq I: 102
  Counts Seq II: 11

## FVTGNRDHTHG
  Counts (raw counts for peptide sequence), Seq I: 45
  Counts (raw counts for peptide sequence), Seq II: 5
  Percentage of the pool, averaged across the two sequencing samples: 0.011%
  Percentage of the pool, Seq I: 0.010%
  Percentage of the pool, Seq II: 0.012%

## CYGGRTFIYAWT
  Percentage Seq I: 0.043%
  Percentage Seq II: 0.035%
  Percentage Average: 0.039%
  Counts Seq I: 190
  Counts Seq II: 15

## CYGGRTFIYVWS
  Percentage Seq I: 0.038%
  Percentage Seq II: 0.023%
  Percentage Average: 0.031%
  Counts Seq I: 168
  Counts Seq II: 10

## CLDKWGRLWS
  Percentage Seq I: 0.911%
  Percentage Seq II: 0.754%
  Percentage Average: 0.833%
  Counts Seq I: 3987
  Counts Seq II: 325

## WSTRTFTCRTLL
  Percentage Seq I: 0.395%
  Percentage Seq II: 0.446%
  Percentage Average: 0.420%
  Counts Seq I: 1728
  Counts Seq II: 192

## STWGNRNETRG
  Percentage Seq I: 0.029%
  Percentage Seq II: 0.026%
  Percentage Average: 0.028%
  Counts Seq I: 129
  Counts Seq II: 11

## CYAAGSASWSRG
  Counts (raw counts for peptide sequence), Seq I: 65
  Counts (raw counts for peptide sequence), Seq II: 6
  Percentage of the pool, averaged across the two sequencing samples: 0.014%
  Percentage of the pool, Seq I: 0.015%
  Percentage of the pool, Seq II: 0.014%

## GRLNECHVTWP
  Counts (raw counts for peptide sequence), Seq I: 43
  Counts (raw counts for peptide sequence), Seq II: 9
  Percentage of the pool, averaged across the two sequencing samples: 0.015%
  Percentage of the pool, Seq I: 0.010%
  Percentage of the pool, Seq II: 0.021%

## CFAGRLTIDAV
  Percentage Seq I: 2.645%
  Percentage Seq II: 2.553%
  Percentage Average: 2.599%
  Counts Seq I: 11574
  Counts Seq II: 1100
